The assay deals with HLA-A*02:01 (Homo sapiens, UniProt P04439, D140Y/D185E/D98H/E176V/E277Q/G131W/G231S/I119V/I121R/I166T/I218V/L300P/L318F/N151K/N90K/P208A/P217A/Q86G/Q94H/R138H/R169H/T345S). Description: MHC binding assay (UV-ligand exchange, ELISA of stabilized MHC complexes). The note with it: MHC class I binding score; binding to HLA-A*02:01 ranged by peptide exchange yield (UV-ligand exchange, ELISA). An excerpt: Candidate peptides for T cell based therapies according to the present invention were further tested for their MHC binding capacity (affinity). The individual peptide-MHC complexes were produced by UV-ligand exchange, where a UV-sensitive peptide is cleaved upon UV-irradiation, and exchanged with the peptide of interest as analyzed. Only peptide candidates that can effectively bind and stabilize the peptide-receptive MHC molecules prevent dissociation of the MHC complexes. To determine the yield of the exchange reaction, an ELISA was performed based on the detection of the light chain (β2m) of stabilized MHC complexes. The assay was performed as generally described in Rodenko et al. (Rodenko et al., 2006).
96 well MAXISorp plates (NUNC) were coated over night with 2 ug/ml streptavidin in PBS at room temperature, washed 4× and blocked for 1h at 37° C. in 2% BSA containing blocking buffer. […] Peptide-MHC monomers of the UV-exchange reaction were diluted 100 fold in blocking buffer. Samples were incubated for 1h at 37° C., washed four times, incubated with 2 ug/ml HRP conjugated anti-82m for 1h at 37° C., washed again and detected with TMB solution that is stopped with […]. Absorption was measured at 450 nm. Candidate peptides that show a high exchange yield (preferably higher than 50%, most preferred higher than 75%) are generally preferred for a generation and production of antibodies or fragments thereof, and/or T cell receptors or fragments thereof, as they show sufficient avidity to the MHC molecules and prevent dissociation of the MHC complexes.
On the technique in general: In an ELISA, binding on a coated surface is turned into a signal by an enzyme label.
With “110 (FLSQVDFEL; listed as Homo sapiens) [compound 110]”, the Peptide exchange entry was “″+++″ (≥50% = +++)”. As for “111 (YVWGFYPAEV; listed as Homo sapiens) [compound 111]”, the Peptide exchange result is recorded as “″+++″ (≥50% = +++)”. Consider “114 (SLVGEPILQNV; listed as Homo sapiens) [compound 114]”, for which the Peptide exchange entry is “″++″ (≥20% = ++)”. Take “115 (AIAGAGILYGV; listed as Homo sapiens) [compound 115]”: the Peptide exchange result is “″++″ (≥20% = ++)”.

Turning to “116 (YHIDEEVGF; listed as Homo sapiens) [compound 116]”, the Peptide exchange entry is “″+″ (≥10% = +)”. The entry for “117 (ILPDGEDFLAV; listed as Homo sapiens) [compound 117]” is “″+++″ (≥50% = +++)”; for “119 (FLYIGDIVSL; listed as Homo sapiens) [compound 119]” it is “″++++″ (≥75% = ++++)”; for “120 (ALLGIPLTLV; listed as Homo sapiens) [compound 120]” it is “″+++″ (≥50% = +++)”. The entry for “121 (GVVDPRAISVL; listed as Homo sapiens) [compound 121]” is “″++″ (≥20% = ++)”.

As for “122 (FLLAEDDIYL; listed as Homo sapiens) [compound 122]”, the Peptide exchange result was “″+++″ (≥50% = +++)”. Consider “123 (NLWDLTDASVV; listed as Homo sapiens) [compound 123]”, for which the Peptide exchange result is given as “″+++″ (≥50% = +++)”. Next, “124 (ALYETELADA; listed as Homo sapiens) [compound 124]”: “″++″ (≥20% = ++)”; “125 (VQIHQVAQV; listed as Homo sapiens) [compound 125]”: “″+++″ (≥50% = +++)”. Next, “126 (VLAYFLPEA; listed as Homo sapiens) [compound 126]”: “″++++″ (≥75% = ++++)”; “127 (KIGDEPPKV; listed as Homo sapiens) [compound 127]”: “″++″ (≥20% = ++)”; “128 (YLFDDPLSAV; listed as Homo sapiens) [compound 128]”: “″++″ (≥20% = ++)”. Next, “129 (GLLDGGVDILL; listed as Homo sapiens) [compound 129]”: “″+++″ (≥50% = +++)”; “130 (FLWNGEDSALL; listed as Homo sapiens) [compound 130]”: “″+++″ (≥50% = +++)”.

Turning to “131 (FVPPVTVFPSL; listed as Homo sapiens) [compound 131]”, the Peptide exchange result was “″++″ (≥20% = ++)”.

Regarding “132 (LLVEQPPLAGV; listed as Homo sapiens) [compound 132]”, the Peptide exchange entry was “″+++″ (≥50% = +++)”. Next, “133 (KVLSNIHTV; listed as Homo sapiens) [compound 133]”: “″++″ (≥20% = ++)”; “134 (YLQELIFSV; listed as Homo sapiens) [compound 134]”: “″+++″ (≥50% = +++)”; “135 (ALSEVDFQL; listed as Homo sapiens) [compound 135]”: “″+++″ (≥50% = +++)”. The entry for “136 (YLADPSNLFVV; listed as Homo sapiens) [compound 136]” is “″+++″ (≥50% = +++)”; for “137 (TLVLTLPTV; listed as Homo sapiens) [compound 137]” it is “″++++″ (≥75% = ++++)”.

As for “138 (YQYPRAILSV; listed as Homo sapiens) [compound 138]”, the Peptide exchange entry is “″+++″ (≥50% = +++)”. The entry for “139 (SVMEVNSGIYRV; listed as Homo sapiens) [compound 139]” is “″+++″ (≥50% = +++)”; for “140 (YMDAPKAAL; listed as Homo sapiens) [compound 140]” it is “″++″ (≥20% = ++)”.

“142 (FLFATPVFI; listed as Homo sapiens) [compound 142]”: the Peptide exchange entry is “″+++″ (≥50% = +++)”. Next, “144 (YIMEPSIFNTL; listed as Homo sapiens) [compound 144]”: “″+++″ (≥50% = +++)”; “145 (FLATSGTLAGI; listed as Homo sapiens) [compound 145]”: “″++″ (≥20% = ++)”; “146 (SLATAGDGLIEL; listed as Homo sapiens) [compound 146]”: “″++″ (≥20% = ++)”. The entry for “147 (SLLEAVSFL; listed as Homo sapiens) [compound 147]” is “″+++″ (≥50% = +++)”. The entry for “148 (ALNPEIVSV; listed as Homo sapiens) [compound 148]” is “″++″ (≥20% = ++)”.

As for “149 (NLLELFVQL; listed as Homo sapiens) [compound 149]”, the Peptide exchange result was “″+++″ (≥50% = +++)”. For the substance “151 (KILQQLVTL; listed as Homo sapiens) [compound 151]”, the Peptide exchange entry is reported as “″+++″ (≥50% = +++)”. Next, “152 (ILFEDIFDV; listed as Homo sapiens) [compound 152]”: “″+++″ (≥50% = +++)”. Next, “153 (FLIANVLYL; listed as Homo sapiens) [compound 153]”: “″+″ (≥10% = +)”; “154 (ALDDGTPAL; listed as Homo sapiens) [compound 154]”: “″++″ (≥20% = ++)”. Next, “155 (RVANLHFPSV; listed as Homo sapiens) [compound 155]”: “″+++″ (≥50% = +++)”; “157 (SLNDEVPEV; listed as Homo sapiens) [compound 157]”: “″++″ (≥20% = ++)”; “158 (KLFDVDEDGYI; listed as Homo sapiens) [compound 158]”: “″+++″ (≥50% = +++)”. As to “159 (GLVGNPLPSV; listed as Homo sapiens) [compound 159]”, the Peptide exchange entry was “″++++″ (≥75% = ++++)”.

In the case of “160 (FLFDEEIEQI; listed as Homo sapiens) [compound 160]”, the Peptide exchange entry is listed as “″+++″ (≥50% = +++)”. Next, “161 (ALLEGVNTV; listed as Homo sapiens) [compound 161]”: “″+++″ (≥50% = +++)”. In the case of “162 (YQQAQVPSV; listed as Homo sapiens) [compound 162]”, the Peptide exchange result is on record as “″+++″ (≥50% = +++)”. Next, “163 (ALDEMGDLLQL; listed as Homo sapiens) [compound 163]”: “″+++″ (≥50% = +++)”.

In the case of “164 (ALLPQPKNLTV; listed as Homo sapiens) [compound 164]”, the Peptide exchange result is “″+++″ (≥50% = +++)”. Next, “165 (SLLDEIRAV; listed as Homo sapiens) [compound 165]”: “″+++″ (≥50% = +++)”; “167 (KVLEVTEEFGV; listed as Homo sapiens) [compound 167]”: “″+++″ (≥50% = +++)”. Next, “168 (KILDADIQL; listed as Homo sapiens) [compound 168]”: “″++++″ (≥75% = ++++)”; “169 (NLPEYLPFV; listed as Homo sapiens) [compound 169]”: “″+++″ (≥50% = +++)”; “170 (RLQETLSAA; listed as Homo sapiens) [compound 170]”: “″+++″ (≥50% = +++)”. Next, “171 (LLLPLQILL; listed as Homo sapiens) [compound 171]”: “″+++″ (≥50% = +++)”; “172 (VLYSYTIITV; listed as Homo sapiens) [compound 172]”: “″++″ (≥20% = ++)”; “173 (LLDSASAGLYL; listed as Homo sapiens) [compound 173]”: “″+++″ (≥50% = +++)”. With “174 (ALAQYLITA; listed as Homo sapiens) [compound 174]”, the Peptide exchange entry is recorded as “″+++″ (≥50% = +++)”. The entry for “175 (YLFENISQL; listed as Homo sapiens) [compound 175]” is “″+++″ (≥50% = +++)”.

Take “176 (YLMEGSYNKVFL; listed as Homo sapiens) [compound 176]”: the Peptide exchange entry is listed as “″++″ (≥20% = ++)”.

Consider “177 (YLLPEEYTSTL; listed as Homo sapiens) [compound 177]”, for which the Peptide exchange entry is “″++++″ (≥75% = ++++)”. In the case of “178 (ALTEIAFVV; listed as Homo sapiens) [compound 178]”, the Peptide exchange entry is listed as “″++++″ (≥75% = ++++)”.

Regarding “179 (KVLNELYTV; listed as Homo sapiens) [compound 179]”, the Peptide exchange entry is given as “″+++″ (≥50% = +++)”. The entry for “180 (FQIDPHSGLVTV; listed as Homo sapiens) [compound 180]” is “″++″ (≥20% = ++)”; for “181 (LLWAGTAFQV; listed as Homo sapiens) [compound 181]” it is “″+++″ (≥50% = +++)”.

(Values after patent US10472401B2, “Peptides and combination of peptides for use in immunotherapy against ovarian cancer and other cancers” (immatics biotechnologies GmbH, priority 2015, dated 2019).)
